Blank lines part the entries; values can stand above or below the sequence they belong to.
Experiments:
[1] = biological target: HLA-B*08:01; test: IEDB peptide-MHC binding, purified MHC/competitive/fluorescence; ≥ and ≤ were set here for values at or beyond the usual limits of such assays
[2] = biological target: HLA-A*24:02; test: as above
[3] = biological target: HLA-A*02:06; test: IEDB peptide-MHC binding, purified MHC/competitive/fluorescence; filed as Kd, often an IC50 or EC50 that approximates it; ≥ and ≤ were set here for values at or beyond the usual limits of such assays; conditions: source organism: Human immunodeficiency virus 1
[4] = biological target: HLA-A*02:03; test: as above
[5] = biological target: HLA-A*68:02; test: as above
[6] = biological target: HLA-A*69:01; test: as above
[7] = biological target: HLA-A*02:01; test: as above
[8] = biological target: HLA-B*39:01; test: as above
[9] = biological target: HLA-A*30:01; test: as above; conditions: source organism: Human immunodeficiency virus 1
[10] = biological target: HLA-A*31:01; test: as above; conditions: source organism: Human immunodeficiency virus 1
[11] = biological target: HLA-A*02:16; test: as above; conditions: source organism: Burkholderia pseudomallei K96243
[12] = biological target: HLA-A*02:01; test: IEDB peptide-MHC binding, purified MHC/competitive/fluorescence; ≥ and ≤ were set here for values at or beyond the usual limits of such assays
[13] = biological target: HLA-B*15:01; test: as above
[14] = biological target: HLA-B*07:02; test: as above
[15] = biological target: HLA-A*01:01; test: IEDB peptide-MHC binding, purified MHC/competitive/fluorescence; filed as Kd, often an IC50 or EC50 that approximates it; ≥ and ≤ were set here for values at or beyond the usual limits of such assays
[16] = biological target: HLA-A*26:01; test: as above
[17] = biological target: HLA-B*18:01; test: as above
[18] = biological target: HLA-A*03:01; test: as above
[19] = biological target: HLA-A*29:02; test: as above
[20] = biological target: HLA-A*02:12; test: as above
[21] = biological target: HLA-B*51:01; test: as above
[22] = biological target: HLA-B*27:03; test: as above
[23] = biological target: HLA-A*02:19; test: as above
[24] = biological target: HLA-B*57:01; test: as above
[25] = biological target: HLA-B*15:01; test: as above
[26] = biological target: HLA-B*15:17; test: as above
[27] = biological target: HLA-B*46:01; test: as above
[28] = biological target: HLA-A*24:03; test: as above
[29] = biological target: HLA-A*03:01; test: IEDB peptide-MHC binding, purified MHC/direct/fluorescence; filed as Kd, often an IC50 or EC50 that approximates it; ≥ and ≤ were set here for values at or beyond the usual limits of such assays
[30] = biological target: HLA-A*29:02; test: as above; conditions: source organism: Zaire ebolavirus
[31] = biological target: HLA-A*02:12; test: as above
[32] = biological target: HLA-A*68:02; test: as above
[33] = biological target: HLA-A*02:11; test: as above
[34] = biological target: HLA-A*02:19; test: as above
[35] = biological target: HLA-A*01:01; test: as above; conditions: source organism: Ebola virus - Eckron (Zaire, 1976)
[36] = biological target: HLA-A*01:01; test: IEDB peptide-MHC binding, purified MHC/competitive/fluorescence; ≥ and ≤ were set here for values at or beyond the usual limits of such assays
[37] = biological target: HLA-A*02:16; test: IEDB peptide-MHC binding, purified MHC/direct/fluorescence; filed as Kd, often an IC50 or EC50 that approximates it; ≥ and ≤ were set here for values at or beyond the usual limits of such assays; conditions: source organism: Orthohantavirus andesense
[38] = biological target: HLA-A*02:03; test: as above; conditions: source organism: Orthohantavirus andesense
[39] = biological target: HLA-A*03:01; test: IEDB peptide-MHC binding, purified MHC/competitive/fluorescence; ≥ and ≤ were set here for values at or beyond the usual limits of such assays; conditions: source organism: Vaccinia virus
[40] = biological target: HLA-A*11:01; test: as above; conditions: source organism: Vaccinia virus
[41] = source organism: Human immunodeficiency virus 1
[42] = source organism: Zaire ebolavirus
[43] = source organism: Vaccinia virus
[44] = source organism: Cryptosporidium parvum Iowa II
[45] = source organism: Entamoeba dispar SAW760
[46] = source organism: Measles morbillivirus
[47] = source organism: Vaccinia virus Copenhagen
[48] = source organism: Orthohantavirus andesense

Sequence: DFHERPVIL
- IC50 ([1]; source organism: Variola virus): ≥ 88.5 µM
- IC50 ([2]; source organism: Variola virus): 0.0313 µM

Sequence: EELRSLFNTI
- Kd [3]: 1.14 µM
- Kd [4, 41]: ≥ 20 µM
- Kd [5, 41]: ≥ 20 µM

Sequence: EELRSLFNTV
- Kd [3]: 0.302 µM
- Kd [6, 41]: 0.301 µM
- Kd [5, 41]: 0.325 µM

Sequence: EKLKSLFNTI
- Kd [3]: 0.00183 µM
- Kd [7, 41]: ≥ 20 µM
- Kd [4, 41]: 0.0368 µM
- Kd [8, 41]: 0.641 µM
- Kd [5, 41]: ≥ 20 µM
- Kd [9]: 0.0207 µM
- Kd [10]: ≥ 20 µM

Sequence: ELAKPWPGA
- Kd [11]: ≥ 20 µM
- Kd ([7]; source organism: Burkholderia pseudomallei K96243): 1.21 µM

Sequence: FSILNRKAI
- IC50 [1, 42]: 21.6 µM
- IC50 [12, 42]: ≥ 235 µM
- IC50 [13, 42]: 35.8 µM
- IC50 [2, 42]: 5.56 µM
- IC50 [14, 42]: 46.5 µM

- Kd ([15]; source organism: Escherichia coli): ≥ 20 µM
Sequence: HSDTAKAFA

Sequence: INPIVKTSL
- IC50 [1, 43]: ≥ 88.4 µM
- IC50 [14, 43]: 21.1 µM

Sequence: KIFKVTGEF
- Kd [16, 44]: ≥ 20 µM
- Kd [17, 44]: ≥ 20 µM
- Kd [18, 44]: ≥ 20 µM
- Kd [7, 44]: ≥ 20 µM
- Kd [4, 44]: ≥ 20 µM
- Kd [6, 44]: ≥ 20 µM
- Kd [19, 44]: 0.735 µM
- Kd [20, 44]: ≥ 20 µM
- Kd [8, 44]: ≥ 20 µM
- Kd [5, 44]: ≥ 20 µM
- Kd [21, 44]: ≥ 20 µM
- Kd [22, 44]: ≥ 20 µM
- Kd [23, 44]: ≥ 20 µM

Sequence: KSLYNTVATLY
- Kd [24, 41]: 0.959 µM
- Kd [17, 41]: ≥ 20 µM
- Kd [25, 41]: ≥ 20 µM
- Kd [4, 41]: ≥ 20 µM
- Kd [26, 41]: 0.0064 µM
- Kd [9]: ≥ 20 µM
- Kd [15, 41]: ≥ 20 µM

Sequence: LVGNTLTTC
- Kd [16, 45]: ≥ 20 µM
- Kd [24, 45]: ≥ 20 µM
- Kd [17, 45]: ≥ 20 µM
- Kd [18, 45]: ≥ 20 µM
- Kd [7, 45]: ≥ 20 µM
- Kd [25, 45]: ≥ 20 µM
- Kd [4, 45]: ≥ 20 µM
- Kd [27, 45]: ≥ 20 µM
- Kd [19, 45]: ≥ 20 µM
- Kd [20, 45]: 4.55 µM
- Kd [28, 45]: ≥ 20 µM
- Kd [8, 45]: ≥ 20 µM
- Kd [21, 45]: ≥ 20 µM
- Kd [22, 45]: ≥ 20 µM
- Kd [23, 45]: ≥ 20 µM

Sequence: NSTHNTPVY
- Kd [29, 42]: ≥ 20 µM
- Kd [30]: ≥ 20 µM
- Kd [31, 42]: ≥ 20 µM
- Kd [32, 42]: ≥ 20 µM
- Kd [33, 42]: ≥ 20 µM
- Kd [34, 42]: ≥ 20 µM
- Kd [35]: ≥ 20 µM
- Kd [16, 42]: ≥ 20 µM
- Kd [24, 42]: ≥ 20 µM
- Kd [17, 42]: ≥ 20 µM
- Kd [7, 42]: ≥ 20 µM
- Kd [6, 42]: ≥ 20 µM
- Kd [27, 42]: ≥ 20 µM
- Kd [26, 42]: ≥ 20 µM
- Kd [8, 42]: ≥ 20 µM
- Kd [21, 42]: ≥ 20 µM
- Kd [22, 42]: ≥ 20 µM
- IC50 [13, 42]: ≥ 119 µM
- IC50 [36, 42]: 29.1 µM

Sequence: SFSYFYPFR
- Kd [19, 46]: 0.458 µM
- Kd [15, 46]: ≥ 20 µM

Sequence: TFALKKLII
- IC50 [1, 47]: ≥ 132 µM
- IC50 [12, 47]: ≥ 131 µM
- IC50 [2, 47]: 0.323 µM

Sequence: VRQRVIPVY
- IC50 [1, 42]: ≥ 210 µM
- IC50 [12, 42]: ≥ 524 µM
- IC50 [13, 42]: 3.26 µM
- IC50 [2, 42]: 23.4 µM

Sequence: VWKQLFPEL
- Kd [37]: ≥ 20 µM
- Kd [29, 48]: ≥ 20 µM
- Kd [38]: ≥ 20 µM
- Kd [31, 48]: ≥ 20 µM
- Kd [32, 48]: ≥ 20 µM
- Kd [33, 48]: ≥ 20 µM
- Kd [34, 48]: ≥ 20 µM
- Kd [16, 48]: ≥ 20 µM
- Kd [24, 48]: ≥ 20 µM
- Kd [17, 48]: ≥ 20 µM
- Kd [7, 48]: ≥ 20 µM
- Kd [6, 48]: ≥ 20 µM
- Kd [27, 48]: ≥ 20 µM
- Kd [28, 48]: 0.0105 µM
- Kd [26, 48]: ≥ 20 µM
- Kd [8, 48]: ≥ 20 µM
- Kd [21, 48]: ≥ 20 µM
- Kd [22, 48]: ≥ 20 µM

Sequence: WAMEKSSKY
- IC50 [39]: ≥ 265 µM
- IC50 [12, 43]: ≥ 122 µM
- IC50 [13, 43]: 9.18 µM
- IC50 [14, 43]: ≥ 624 µM
- IC50 [36, 43]: 36.8 µM
- IC50 [40]: ≥ 130 µM
